Assay [1] deals with SARS-CoV-2-S-RBD-mmH (SARS-CoV-2). The conditions noted are these: remark: other sources report otherwise.
Assay [2] has as its target SARS-CoV-2 RBD extracellular domain expressed with a C-terminal myc-myc-hexahistidine tag (SARS-COV-2 RBD-MMH) (SARS-CoV-2). The conditions noted are these: remark: other sources report otherwise.

The results in this text go back to patent US20230348569A1.

B1: mAb10998 (antibody, V domains shown)
VH: EVQLVESGGGLVHPGGSLRLSCAASGLTVSSNYMSWVRQAPGKGLEWVSVIYSGGSTYYADSVKGRFTISRHNSKNTLFLQMNSLRAEDTAVYYCARDRPITGTTLDVWGQGTTVTVSS
VL: DIQMTQSPSSLFASVGDRVTITCRASQSISSYLNWYQQKPGKAPKLLIYAASSLQSGVPSRFSGSGSGTDFTLTISSLQPEDFAFYYCQQTYSTPPITFGQGTRLEIK
For the molecule B1, in assay [1], the Binding Signal (absorbance at 450 nm) (absorbance at 450 nm) was 2.83. The t½ (dissociative half-life) in assay [2] was 0.5 min.

B2: mAb11004 (antibody, V domains shown)
VH: QVQLVESGGGVVQPGRSLRLSCVASGFTFSIYGMDWVRQAPGKGLEWVAVISYDGSNKYYADSVKGRFTISRDNSKNTLYLQMNSLRPEDTAVYYCAKDREAAADAFDIWGQGTMVTVSS
VL: DIQMTQSPSSVSASVGDRVTITCRASQGISSWLAWYQQKPGKAPKLLIYAASSLHSGVPSRFSGSGSGTDFTLTISSLQPEDFATYYCQQANSFRLTFGGGTKVEIK
Take B2: the Binding Signal (absorbance at 450 nm) (absorbance at 450 nm) in assay [1] was 2.91. This molecule also registered a t½ (dissociative half-life) in assay [2] of 3.7 min.

B3: mAb11006 (antibody, V domains shown)
VH: EVQLVESGGGLVQPGGSLRLSCAASGFIVSRNYMSWVRQAPGKGLEWVSVIYSGGSTFYADSVKGRFTISRHNSKNTLYLQMNSLKAEDTAVYYCARELRGYFDYWGQGTLVTVSS
VL: DIQLTQSPSFLSASVGDRVTITCWASQGISSYLAWYQQKPGKAPKLLIYAASTLQSGVPSRFSGSGSGTEFTLTISSLQPEDFATYYCQLLNSYPYTFGQGTKLEIK
Turning to B3, the Binding Signal (absorbance at 450 nm) (absorbance at 450 nm) in assay [1] is 2.62. This molecule also displayed a t½ (dissociative half-life) in assay [2] of 31.5 min.

B4: mAb11008 (antibody, V domains shown)
VH: EVQLVESGGGLVQPGGSLRLSCAASGFTVSSNYMTWVRQAPGKGLEWVSVIYSGGSTFYADSVKGRFTISRHNSENTLYLQMNSLRAEDTAVYYCARDLAAAGTDYWGQGALVTVSS
VL: DIQLTQSPSFLSASVGDRVTITCWASQGISSYLAWYQQKPGKAPKLLIYAASTLQSGVPSRFSGSGSGTEFTLTISSLQPDDFATYYCQHLNSYLYTFGQGTKLEIK
In turn, B4 showed a Binding Signal (absorbance at 450 nm) (absorbance at 450 nm) in assay [1] of 2.91. Also, the t½ (dissociative half-life) in assay [2] was found to be 2.9 min.
